Experimental data from the supplement of paper PMC11780869.

Tested on: Bacillus subtilis
Test: cleaved RNA product abundance (RNA/gDNA barcode ratio) relative to median wild-type variant (ratio to wild type); higher = more accumulation of the downstream cleavage product
Method in brief: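 Sequencing of barcodes from gel-selected, reverse-transcribed cleaved RNA and from genomic DNA, with UMI collapsing, yielded a per-construct RNA:gDNA ratio. Scaled to the median construct with the unmutated site, this ratio is the cleaved product abundance. The barcoded reporters (truncated aprE or tetM mRNAs with mutagenized RNase Y cleavage-site windows) were integrated into the B. subtilis chromosome, and cultures grew in LB at 37°C from OD600 0.0003 to 0.3.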

[1] = experiment (reporter, strain, medium): exp 8a: truncated aprE reporter, strain BJT201 with 2% xylose (RNase J1 expressed), cleavage site: glnRA (positions -5 to +31 mutated)
[2] = experiment (reporter, strain, medium): exp 4a: truncated aprE reporter, strain BJT201 with 2% xylose (RNase J1 expressed), cleavage site: cggR-gapA (positions -7 to +36 mutated)
[3] = experiment (reporter, strain, medium): exp 2b: truncated aprE reporter, strain BJT200, cleavage site: cggR-gapA (positions -7 to +36 mutated)
[4] = experiment (reporter, strain, medium): exp 6: tetM reporter, strain 168, cleavage site: cggR-gapA (positions -7 to +36 mutated)

Sequence	cleaved RNA product abundance [2]	cleaved RNA product abundance [3]	other results
CGACATGTCCCGCTTCTTTCATTAATCCGTTAGCAATTATTTTGCTATATACATTTACCTTTTAAGAGGAGGAAT			cleaved RNA product abundance [1]: 1.14
ACAGACGAAGGAGCCGCAAAGAAGTTATTAAGGGACGAATAATCCCTCAAAATAAATATCTCTCACTTATTTAAA	0.346		
ACAGACGAAGGAGCCGCGAAGAAGTTATTAAGGGATGAATAAACCCTCAATATAAATATCTCTCACTTATTTAAA	0.467		
CGACATGTCCCGCTTCTTTCATTAATCCATTAGCAACTGTTTTGCTATATACATTCACCTTTTAAGAGGAGGAAT			cleaved RNA product abundance [1]: 0.276
ACAGACGAAGGAGCCGCAAAGAAGTTATTAAGGGATGAATAATACCTCAATATAAATAACTCTCACTTATTTAAA	0.0774	0.144	
ACAGACGAAGGAGCCGCAAAGAAGTTATTAAGGGATGAAAAATTCCTCAATATAAATATCTCTCACTTATTTAAA	0.327	0.274	
CGACATGTCCCGCTTCTTTCATTAATCCATTAGAAACTGTTTTTCTATTTACATTTACCTTTTAAGAGGAGGAAT			cleaved RNA product abundance [1]: 0.127
ACAGACGAAGGAGCCGCAAAGAAGTTATTAAGGGATGAATTATACCTCAATATAAATATCTCTCACTTATTTAAA	0.162	0.139	
ACAGACGAAGGAGCCGCAAAGAAGGTATTAAGGTATGAATAATCCCTCAATATAAATATCTCTCACTTATTTAAA	0.23		
ACAGACGAAGGAGCCGCAAAGATGTTATTAAGGGATGAATAATCACTCAATATAAATATCTCTCACTTATTTAAA	0.181		
CGACATGTCCCGCTTCTTTCATTAATCCGTTAGCAACTGTTTTACTATATACATTTACGTTTTAAGAGGAGGAAT			cleaved RNA product abundance [1]: 0.77
ACAGACGAAGGAGCCGCAAAGAAGATCTTAAGGGATGAATAATCCCTCAATATAAATATCTCTCACTTATTTAAA	0.166		
ACAGACGAAGGAGCCGCAAAAAAGTTATTAATGGCTGAATAATCCCTCAATATAAATATCTCTCACTTATTTAAA	0.0935		
ACAGACGAAGGAGCCGCAAAGAAGTTATCAAGGGATCAATAATCCCTCAATATAAATATCTCTCACTTATTTAAA		0.24	
ACAGACGAAGGAGCCGCAAAGTAGTTATTAAGGGATGAATAATCCCTCAAAATAAATATCTCTCACTTATTTAAA	0.425	0.289	cleaved RNA product abundance [4]: 0.282
ACAGACGAAGGAGCCGCAAAGAAGTTATTAAGGGATGAATAATCTCTCAACATAAATATCTCTCACTTATTTAAA	0.156		
ACAGACGAAGGAGCCGCTAAGAAGTTATTAAGGGATGAATAATCCCTCAAGATAAATATCTCTCACTTATTTAAA	0.322	0.249	
ACAGACGAAGGAGCCGCAAAGAAGTTATTAAGGGATGAATCATCCCTCACTATAAATATCTCTCACTTATTTAAA	0.22		
CGACATGTCCCGCTTCTTTCATTAATCCGTTGGCAATTGTTTTGCTATATACATTTACCTTTTAAGAGGAGGAAT			cleaved RNA product abundance [1]: 1.12
ACAGACGAAGGAGCCGCAAAAAAGTTATTAAGGTATGAATAATCCCTCAATATAAATATCTCTCACTTATTTAAA	0.17	0.121	
ACAGACGAAGGAGCCGCAAAGAAGTTACAAAGGGATGAATAATCCCTCAATATAAATATCTCTCACTTATTTAAA	0.257		

Sequence	cleaved RNA product abundance [2]	cleaved RNA product abundance [3]	other results
ACAGACGAAGGAGCCGCAAAGAAGTTATTAAGGGATAAATTATCCCTCAATATAAATATCTCTCACTTATTTAAA	1.03	1.07	
ACAGACGAAGGAGCCGCAAAGAAGTTATTAAAGGATGAATAATCCCTCAATATAAATCTCTCTCACTTATTTAAA	0.208		
ACAGACGAAGGAGCCGCAACGAAGTTATTAAGAGATGAATAATCCCTCAATATAAATATCTCTCACTTATTTAAA	0.137		
ACAGACGAAGGAGCCGCAAAGAAGTTAGTAAGGGATGAATAATCCTTCAATATAAATATCTCTCACTTATTTAAA		0.29	
ACAGACGAAGGAGCCGCAAAGAAGTTATTAAAGGATGAATGATCCCTCAATATAAATATCTCTCACTTATTTAAA	0.155	0.0792	
ACAGACGAAGGAGCCGCAAAGAAGTTATCAAGTGATGAATAATCCCTCAATATAAATATCTCTCACTTATTTAAA	0.0945		
CGACATGTCCCGCTTCTTTCATTATTCCGTTAGCAACTGTTTTGCTACATACATTTACCTTTTAAGAGGAGGAAT			cleaved RNA product abundance [1]: 0.626
ACAGACGAAGGAGCCGCAAAGAAGTTATTAAGGCATTAATAATCCCTCAATATAAATATCTCTCACTTATTTAAA	0.108	0.0847	
ACAGACGAAGGAGCCGCAAAGAAGTTATTAAGGGATGAATAATCCGTAAATATAAATATCTCTCACTTATTTAAA	0.28		
CGACATGTCCCGCTTCTTTCATTAATCCCTTAGCAACTCTTTTGCTATATACATTTACCTTTTAAGAGGAGGAAT			cleaved RNA product abundance [1]: 0.0915
ACAGACGAAGGAGCCGCAAAGAAGTTATTAAGCGATGAATACTCCCTCAATATAAATATCTCTCACTTATTTAAA	0.102		
CGACATGTCCCGCTTCTTTCATTACTCCGTTAGCAACTGTTTTCCTATATACATTTACCTTTTAAGAGGAGGAAT			cleaved RNA product abundance [1]: 0.679
ACAGACGAAGGAGCCGCAAAGAAGTTATTAAGGGATTAATAATCCCTCAATATAAATATATCTCACTTATTTAAA	1.23		
ACAGACGAAGGAGCCGCAAAGAAGTTATTAACGGATGAATAATCCCTCAAAATAAATATCTCTCACTTATTTAAA	0.158	0.105	
CGACATGTCCCGCTTCTTTCATTAATCCGTTAGCAACTGTTTTGCTATAAACCTTTACCTTTTAAGAGGAGGAAT			cleaved RNA product abundance [1]: 0.163
ACAGACGAAGGAGCCGCAAAGAAGTTATTAAGGGATGAATAATCCCTCAATATAAAAATCTCTCACTTATTTAAA	0.794	0.906	cleaved RNA product abundance [4]: 0.602
CGACATGTCCCGCTTCTTTCATTAATCTGTTAGCTACTGTTTTGCTATATACATTTACCTTTTAAGAGGAGGAAT			cleaved RNA product abundance [1]: 0.743
CGACATGTCCCGCTTCTTTCATTAATCCGTTACTAACTGTTTTGCTATATACATTTACCTTTTAAGAGGAGGAAT			cleaved RNA product abundance [1]: 0.155
ACAGACGAAGGAGCCGCAAAGAAATTATTAAAGGATTAATAATCCCTCAATATAAATATCTCTCACTTATTTAAA	0.142		
ACAGACGAAGGAGCCGCAAAGAAGTTATTAAGGGATGAAAAATCCCCCAATATAAATATCTCTCACTTATTTAAA	0.184		
